# Results reported in patent US6582902B1, “Method for deriving epitopes” (priority 1992, dated 2003).
# B1: D10 RNA: single RNA species selected from the degenerate pool by anti-g10 serum (SEQ ID NO:3); U1 stem II with loop UGGUGGAGCA (nucleic acid)
# chain: GGGCCACCAACGACAUUGGGCGAGGCUUAUCCUGGUGGAGCAGGAUGUGCUGACCCCGUUGAUAUAAAUAGUGCCCAUGGAUC
# modifications: chemistry not given here
# notes: U1 stem II with loop UGGUGGAGCA
# How the values were obtained:
# [1] = system: g10-reactive antibodies (anti-g10 serum); experiment: Competition for immunoprecipitation of [35S] g10-U1-A fusion protein by anti-g10 serum; format: binding, rabbit
# Text: Panel A: Western blot of E. coli extracts containing various U1-A protein constructs. All extracts were produced from induced E. coli cells containing recombinant pET-8c T7 expression vectors in accordance with known techniques. See F. Studier et al., Meth. Enzym. 185, 60-89 (1991). U1-A cDNA was cloned into pET-8c either attached or not attached to the g10 peptide. Lanes: 1, 5 and 9: the pET-8c vector alone; 2, 6 and 10: g10-U1-A protein; 3, 7 and 11: U1-A protein; 4, 8 and 12: total HeLa cell extracts. Lanes 1-4 were probed with pre-immune rabbit serum; lanes 5-8 were probed with anti-g10 serum; and lanes 9-12 were probed with a U1/U2-specific autoimmune serum (patient). EW reacts with U1 RNA, U1-70K (70 kDa), U1-A (31 kDa) and U2-A′ (28.4 kDa) (lane 12). Panel B: Immunoprecipitation and competition analysis of [^35S]-methionine-labeled U1-A and g10-U1-A proteins expressed by in vitro transcription, and subsequent translation in rabbit reticulocyte lysates. Lanes: 1 and 2 show the amount of U1-A and g10-U1-A translation product, respectively, added to each immunoprecipitation reaction; 3: blank; 4 and 5: U1-A and g10-U1-A precipitated with serum EW (reactive with U1-A); 6 and 7: U1-A and g10-U1-A, respectively, precipitated with anti-g10 serum. In lanes 8-12, g10-U1-A was precipitated with anti-g10 serum in the presence of varying amounts of competitors as follows: lanes 8-11 contained the g10 peptide at concentrations of 27.8, 83.3, 250 and 750 nM, respectively; lane 12 contained a control peptide (sequence GKSRGFAFVEFK-amide) (SEQ ID NO:4) at a concentration of 25 mM. The faint lower band in all lanes represents either a degradation product or a premature translation termination product and is seen consistently in U1-A translations.
# [^32P] labeled in vitro transcribed D10 RNA or [^35S] labeled in vitro translated g10 fusion protein (g10-U1A) was immunoprecipitated by the anti-g10 serum in the presence of various competitors. D10 RNA and g10 fusion protein bound in the immunoprecipitations were analyzed using denaturing polyacrylamide gels and autoradiography. […]
# [2] = system: anti-g10 serum; experiment: Selection of RNA from degenerate pool by immunoprecipitation with anti-g10 serum; format: binding, rabbit; settings: three cycles, high stringency washing (0.5 M urea)
# Text: Whereas the g10 peptide is a useful epitope tag for analyzing complexes containing protein, an RNA epitope tag would be equally useful for studying complexes containing RNA. The anti-g10 serum was presented with a degenerate pool of RNA containing 1,048,576 unique species, assuming incorporation of four different nucleotides at 10 randomized loop positions (FIG. 2). These RNAs were transcribed from approximately 1×10^11 molecules of degenerate oligodeoxynucleotide template (D. Tsai et al., Nucl. Acids Res. 19, 4931-4936 (1991)). Assuming that most templates are transcribed at least once, all possible RNA species should be redundantly represented. RNA was prepared by in vitro transcription of PCR-generated templates in accordance with known techniques (D. Tsai et al., Nucl. Acids Res. 19, 4931-4936 (1991)). The transcripts were immunoprecipitated with the anti-g10 serum as follows: Protein A Sepharose beads (Sigma, 4 mg per […]) were washed in NT2 buffer (50 mM Tris [pH 7.4], 150 mM NaCl, 0.05% Nonidet P-40) (C. Query et al., Cell 57, 89-101 (1989)), mixed with […] of anti-g10 serum, incubated on ice for 10 min, and washed in NT2. […]
molecule,measurement,setting,value
B1,competition with g10 fusion protein for binding to the antibody,"[1]; FIG. 5C, 0.7 nM competitor RNA",able to compete
same,"competition with [35S] labeled g10 fusion protein, increasing amounts of competitor","[1]; FIG. 5D, 0.0175-1.05 nM D10 RNA",able to progressively compete
same,isolates obtained after antibody selection,[2],45 out of 45
